Reference: the nanobody polyreactivity screen of Harvey et al. (2022)

Experiment: yeast display, Sf9 membrane polyspecificity reagent, FACS + sequencing; frameworks hold sequencing errors
Method in brief: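 After 36–48 hours of galactose induction, yeast (Saccharomyces cerevisiae BJ5465) displaying a synthetic nanobody library were stained at 4 °C for 1 hour with 10% biotinylated, detergent-solubilized Sf9 membrane reagent. Streptavidin microbeads enriched the stained cells before FACS sorting into low and high (top ~1%) gates on anti-HA and streptavidin fluorescence. Each clone's polyreactivity label reflects its gate of origin.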

## QVHLVESGGGLDQAGGSLRLSCAASGSIYGPYAMGWYRQAPGKERELVAAIRSGGSTNYADSVKGRFTITRDNAKNTVYLLMTSLKPEDTAVYYCAAEYWGYPYDYWGQGTQVTVSS
  polyreactivity (PSR sort gate): low polyreactivity

## QDQLVESGGGLVQAGGSLRLSCAASGNTFTVNAMGWYRQAPGKERELVATINSTGGSTYYADSVKGRFTISRDNAKNTVYLQMNSLKPEDPAVYYAGSSNSFAFGGYDYWGQGTQVTVSS
  polyreactivity (PSR sort gate): low polyreactivity

## QVQLVESGGGLVQAGGSLRLSCAASGRIFRYNAMGWYRQAPGKERELVAAISRGGSSTYYADSVKGRFTISRDNAKNTVYLQMNSLKPEDTAVYYCNARSVVREFNYWGQGTQVTVSS
  polyreactivity (PSR sort gate): high polyreactivity

## QVQLVESGGCLVQAGGSLRLSCASSGRTFSWNAMGCYRQAPGKEREFVAAISNSGGSTYYADSVNGRFTISRDNAKNTVYLQMNSLKPEDTAVYYCAVYRYYGFSLWYDYWGQCTQVTVSS
  polyreactivity (PSR sort gate): low polyreactivity

## QVQLVESAGGLVQAGGSLRLSCAASGSLFSLYAMGWYRQAPGKERELVAAITQSGGTKFYADSVKGRFTISRDNAKNTVYLQMNRLKPEDTAVYYCAAEWYRCYVPLGVAGEYDYWGQGTQVTVSS
  polyreactivity (PSR sort gate): low polyreactivity

## QVQLVESGGGLVQAGGSLRLSCAASGRTLISYAMGWYRQAPGKERELVAAISWGGSSTYYADSVKGRFTISGDNAKNTVYLQMNSLKPEDTAVYYCAAVSYRGRGLSRYVAYGYKYDYWGQGTQVTVSS
  polyreactivity (PSR sort gate): high polyreactivity

## QVQLVESGGGLVQAGGSLRLSCAASVSTFRNYAMGWYRQAPGKERELVAAISGSGVRTYYADSVKGRFTISRDNAKNTVYLQMNSLKPEDTAVYYCAARGQGGPYNYWGQGTQVTVSS
  polyreactivity (PSR sort gate): high polyreactivity

## QVQLVESGGGLVQAGGSLRLSCAASGYIFVPYAMGWSRQAPGKERELVAAISRGGNTNYADSVKGRFTISRDNAKNTVYLQMNSLKPEDTAVYYCNADLVQYWGRRRWYDYWGQGTQVTVSS
  polyreactivity (PSR sort gate): low polyreactivity

## QVQLVESGGGLVQAGGSLRLSCAASGFTFFHNAMGWYRPAPGKERELVAAITSGGNTYYADSVKGRFTISRDNAKNTVYLQMNSLKPEDTAVYYCAASFWSSGQWYDYWGQGTQVTVSS
  polyreactivity (PSR sort gate): high polyreactivity

## QVQLVESGGGLVQAGGSLRLSCAASGLIFKYNAMGWYRHAPGKERELVAAISTSGGSTYYADSVKGRFTISRDNAKNTVYLQMNSLKPEDNAVYFCNAVAGRPFRYYYWGQGTQVTVSS
  polyreactivity (PSR sort gate): high polyreactivity

## QVQLVESGGGLVQAGGSLRLSCAASGFTFVINDMGWYRQAPGKERELVADITSGGDTNYADSVKGRFTISRDNAKNTVYFQMNSLKPEDTAVYYCAADIYPDWIYLLFGYWGQGTQVTVSS
  polyreactivity (PSR sort gate): low polyreactivity

## QVQLVESGGGLVQAGGSLRLSCAASGSIFDDYAMGWYRQAAGKERELVAAITWNGGSTYADSVKGRFTISRDYAKNTVYLQMHSLKPEDTAVYYCNRGGAFNTRNEITRYGYWGQGTQVTVSS
  polyreactivity (PSR sort gate): low polyreactivity

## QVHLVESGGGLVQAGGSLRLSCAASGSIFTPYAMGWYRQAPGKERELVATISWSGGRTYYADSVKGRFTISRDNAKNTVYLQMNSLKPEDTAVYYCAARGYSSEYDYWGQGTQVTVSS
  polyreactivity (PSR sort gate): high polyreactivity

## QVQLVESGGGLVQAGGSLRLSCAASGRTFKYNAMGWYRQAPGKERELVAVISRSTGRTYYADSVKGRFTISRDNAKNTFYLQMNSLKPEDTAVYSCNRVSRQYYYQRGFEYDYWGQGTQVTVSS
  polyreactivity (PSR sort gate): high polyreactivity

## QVQLVESGGGLVQAGGSLRLSCAASGFIFDKNAMGWYRQAPGKERELVAAITSSGGSTYADSVKGRFTISRDNAKNTVYLQMNSLKPEDTAVYYCAARWYRPWYVTDSGDDYWGQGTQVTVSS
  polyreactivity (PSR sort gate): low polyreactivity

## QVQLVESGGGLVQAGGSLRLSCAASGRTFYRNAMGWYRQAPGKERELVAAISWSGGRTFYADSVKGRFTISRDNAKNTVYLQMNSLKPEDTAVYYCAKTYTTPGYYRYDYWGQGTQVTVSS
  polyreactivity (PSR sort gate): high polyreactivity

## QVQLVESGGGLVQAGGSLRLSCAASGSTLVTYAMGWYRQAPGKERELVAAISWRGGSTYYADSVKGRFTISRDNAKNTVELQMNSLKPEDTAVYYCNKLRAYKESETYYYWGQGTQVTVSS
  polyreactivity (PSR sort gate): low polyreactivity

## QVQLVESGGGLVQAGGSLRLSCAASGNTFSSNAMGWYRQAPGKERELVAAISWSGGRTYYADSVKGRFTISRDNAKNTVYLQMNSLKPEDTAVYYCAAALGRRRTGYDYWGQGTQVTVSS
  polyreactivity (PSR sort gate): high polyreactivity

## QVQLVESGGGLVQAGGSLRLSCAAYGRIFKYYVMGWYRPAPGKERELVATISSGSGTNYADSVKGRFTISRDNAKNTVYLQMNSLKPEDTAVYYCAARWTPRVRGYNYWGQGTLVTVSS
  polyreactivity (PSR sort gate): high polyreactivity

## QVQLVESGGGLVQAGVSLRLSCAASGTFYYAMGWYRQAPGKEREFVAAISWRGGTTYYADSVKGRFTISRDNAKNTVYLQMNSLKPEDTAVYYCATAPYVTSRRYGPYEYWGQGTQVTVSS
  polyreactivity (PSR sort gate): low polyreactivity

## QVQLVESGGGLVQAGGSLSLTCAASGRTFESNAMGWYRQAPGKERELVAVITSGGITNYTDSVKGRFTISRDNAKNTVYLQLNSLKPVDTAVYYCEFYYWGQGTQVTVSS
  polyreactivity (PSR sort gate): low polyreactivity

## QVQLVESGGGLVQAGGSLRLSCAASGYNFLRNAMGWYRQAPGKERELVAAISYSGGGTYYADSVKGRFTISRDNAKNTVYLQMNSLKPEDTAVYYCNVAQRYYGNFWSESIEYDYWGLGTQVTVSS
  polyreactivity (PSR sort gate): low polyreactivity

## QVQLVESGGGLVQAGGSLRLSCAASGFIFSGYAMGWYRQAPGKEWELVAAISRRGGSTYYADSVKGRFTISRDNAKNTVYLQMNSLKPEDTAVYYCARTTRGSYGKFYYWGQGTQVTVSS
  polyreactivity (PSR sort gate): high polyreactivity

## QVQLVESGGGLVQAGGSLRLSCAASGSTFWYNGMGWYRQAPGKERELVAAINWSGDSTYYADSVKGRFTISRDNAKNTVYLQMNSLKPEDTAVFYCAGGYYTYSRRSSFFVAYGYWGLGTQVTVSS
  polyreactivity (PSR sort gate): low polyreactivity

## QVQLVESGGGLVQAGGSLRLSCAASGSIFSYYAMGWYRQAPGKEREFVAAITKSGGSTYYADSVKGRFTISRDNAKNTVYLQMNSLKPEDTAVYYCAVRYKLYYYGYDYWGQGTQVTVSS
  polyreactivity (PSR sort gate): low polyreactivity

## QVQLVESGGGLVQAGGSLRLSCAASGLNFGRNAIGWYRQAPGKERELVAAISLSGGRTSYADSVKGRFTISRDNEQNTVYLQMNSVKPEDTAFYFCASRSDVYTHDYWGQGTQVTVSS
  polyreactivity (PSR sort gate): high polyreactivity

## QVQLVESGGGVVQAGGSLRLSCAASGSIFISNAMGWYRQAPGTERELVAAITLTGTSTYYADSVKGRFTISRDNAKNTVYLQMNSLKPEDTAVYYCAAEYYYIVTYDFGYWGQGTQVTVSS
  polyreactivity (PSR sort gate): low polyreactivity

## QVQLVESGGGLVQAGGSLRLSCDASGFTLAWNARGWSRQAPRKERELVATISRSGSSTSYADSVKGRFTISRDNAKNTVYLQMNSLKPEDTAVYYCAKSGRYGFWGQGTQVTVSS
  polyreactivity (PSR sort gate): high polyreactivity

## QVQLVESGGGLVQAGGSLRLSCAASGRIFGVYAMGWYRQAPGKEREFVASITRGGGRTYYADSVKGRFTISRDNAKNTVYLQMNSLKPEDTAVYYCNAVVNSYPYYYWGQGTQVTVSS
  polyreactivity (PSR sort gate): high polyreactivity

## QVQLVESGGGLVQAGGSLRLSCAASGLTFYQYAMGWYRQAPGKERELVAGISSGGSTKYADSVKGRFTISRDNAKNTVYLQMNSLKPEDTAVYYCAARFCAFRKGYYYWGQGTQVTVSS
  polyreactivity (PSR sort gate): high polyreactivity

## QVQLEESGGGLVQAGGSLRLSCAASGSTFNYYAMGWYRTATGKERELVAAITGSGTSTYYADSVKGRFTISRDNAKNTVYLQMNSLKPEDTAVYYCNARYRPRQRPEGGYWGQGTQVTVSS
  polyreactivity (PSR sort gate): high polyreactivity

## QVQLVESGGGLVQAGGSLRLSCAASGRIFVYNAMGWYRQAPGKERELVAAITSGGSTYYADSVKGRFTISRDNAKNTVYLQMNSLKPEDTAVYYCAATYFSYTYSRYDYWGQGTQVTVSS
  polyreactivity (PSR sort gate): high polyreactivity

## QVQLVESGGGLVQAGGSLRLSCAASGLIFYYYAKGWYRQAPGKEREFVAAISRSGGITRYADSVKGRFTISRDNAKITVYLQMNSLKPEDTAVYYCAADDYPLTYDDYYWGQGTQVTVSS
  polyreactivity (PSR sort gate): high polyreactivity

## QVQHVESGGGLVQAGGSLRLSCAASGRTVASYAMGWYRPAPGKERELVAVITRGGRTYYADSVKGRFTISRDNAKNTVYLQLNSLKPEDTAVYYCKAAYYSSSYLEDSWGHGTQVTVSS
  polyreactivity (PSR sort gate): high polyreactivity

## QVQLVESGGGLVQAGGSLRLSCAASGSTFSRYTMGWYRQAPGKERELVAAISKSGGSTYYADSVKGRFTISRDNAKNTVYLQMNSLKPEDTAVYYCAALVRAGTSLDYDYWGQGTQVTVSS
  polyreactivity (PSR sort gate): high polyreactivity

## QVQLVESGGGLVQAGGSLRLSCAASGSTFPTNAMGWYRQAPGKEREFVADITIRGGGTAYADSVKGRFTISRDNAKNTVYLQMTSLKPEDTAVYYCARSKSTELKRLLYDSWGQGTQVTVST
  polyreactivity (PSR sort gate): low polyreactivity

## QVQLVESGGGLVQAGGSLRLSCAASGIIYGIYAMGWYRQAPGKERELVAAITSRGGTTYYADSVKGRFTISRDNAKNTVYLQMNSLKPEDTAVYYCAARGRRYSHRVGYDWGQGTQVTVSS
  polyreactivity (PSR sort gate): high polyreactivity

## QVQLVESGGGLLQAGGSLRLSCAASGRTFYRYAMGWYRQAPGKERELVAAITWSGGSTYYADSVKGRFTTSRDNAKNTVYLQMNSLKPEDTAVYYCARRLYPYRPTAYDYWGQGTQVTVSS
  polyreactivity (PSR sort gate): low polyreactivity

## QVQLVESGGGLVQAGGSLRLSCAASGSTFSRNTMGWYRQAPGKERELVAAITRSGDSTYYADSVKGRFTISRDNAKKTVYLQMNSLKPEDTAVYYCAARRAYLNYYYWGQGTQVTVSS
  polyreactivity (PSR sort gate): high polyreactivity

## QVQLVESGGGLVQAGGSLRLSCAASGRIFRYYAMGWSRQAPGKERELVADISRRGGSTYYADSVKGRFTISRDNAKNTVYLQMNSLKPEDTAVYYCNARWYRTGSTYHEDYWGQGTQVTLSS
  polyreactivity (PSR sort gate): high polyreactivity

## QVQLVESGGGLVQAGGSLRLSCAASGSILRQYAMGWYRQAPGKERELVATITGDGSTNYADSVKGRFTISRDNAKNTVYLQMNSLKPEDTAVYYCNAELPVHWSWYDYWGQGTQVTVSS
  polyreactivity (PSR sort gate): low polyreactivity

## QVQLVESVGGLVQAGGSLRLSCAASGSIFVNNAMGWYRQAPGKERELVAAISSRSSRTFYADSVKGRFTISRDNAKNTVYLQINSLKPEDTAVYYCNAVGGRKFGEYDYWGQGTQVTVSS
  polyreactivity (PSR sort gate): high polyreactivity

## QVQLVESGGGLDQAGGSLRLSCAASGSTFPSNAMGWYRQAPGNESEFVAAITFRGGRTYYADSVKGRFTISRDNAKNTVYLQMNSLKREDTAVYYCAAERWWYTVRGYGYWGQGTQVTVSS
  polyreactivity (PSR sort gate): high polyreactivity
